This assay concerns the target Skp1-FBXW7 complex (human FBXW7 residues 263-707 with truncated Skp1) (human) (UniProt P63208). The assay can be described thus: isothermal titration calorimetry, Skp1-FBXW7, 25 °C. (In general: In ITC the heat of successive injections is recorded.)

Data on one substance can be found in patent US9981005.

By Kd is commonly meant the constant that tells how readily two partners part at equilibrium. A lower Kd goes with tighter binding.

Skp1-FBXW7 complex (human FBXW7 residues 263-707 with truncated Skp1) (human), sequence (chain, as listed by the source limits assumed, chain 1 of 2): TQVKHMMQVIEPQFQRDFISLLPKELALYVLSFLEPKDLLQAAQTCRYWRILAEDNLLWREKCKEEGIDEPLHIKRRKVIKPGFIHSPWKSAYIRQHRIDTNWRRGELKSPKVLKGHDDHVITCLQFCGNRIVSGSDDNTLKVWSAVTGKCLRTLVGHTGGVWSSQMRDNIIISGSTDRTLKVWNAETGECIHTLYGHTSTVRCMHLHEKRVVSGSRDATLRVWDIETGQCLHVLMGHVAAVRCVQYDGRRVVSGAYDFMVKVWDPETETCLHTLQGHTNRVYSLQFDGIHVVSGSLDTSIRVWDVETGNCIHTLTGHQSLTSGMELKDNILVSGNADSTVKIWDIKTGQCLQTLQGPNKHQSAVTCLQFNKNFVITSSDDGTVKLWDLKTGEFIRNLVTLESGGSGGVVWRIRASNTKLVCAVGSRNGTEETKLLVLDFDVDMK
Skp1-FBXW7 complex (human FBXW7 residues 263-707 with truncated Skp1) (human), sequence (P63208 whole entry, chain 2 of 2, the tested form may be a part): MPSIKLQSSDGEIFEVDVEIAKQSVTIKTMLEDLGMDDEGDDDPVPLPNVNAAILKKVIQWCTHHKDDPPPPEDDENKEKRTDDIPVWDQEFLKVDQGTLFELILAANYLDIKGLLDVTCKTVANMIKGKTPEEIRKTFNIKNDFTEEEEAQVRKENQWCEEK

In turn, “doubly-phosphorylated test peptide VPPpTPPGpSH” showed a Kd of 1000 nM.
